Measured values as given in paper PMC4577081 (PLoS ONE, 2015).
Each block holds one binder with its values, some of them ahead of it.

Experiments:
[1] = target: T1, cynoCD47/mFc fusion protein (extracellular domain of cynomolgus CD47 fused to mouse Fc) (Macaca fascicularis, UniProt A0A2K5X4I2); experiment: SPR; Biacore 2000; antibody amine coupled to a CM4 chip, CD47 constructs as analyte; 10 mM HEPES pH 7.4, 150 mM NaCl, 0.005% tween-20; 25°C; global fit to a 1:1 model with mass transport; settings: both partners purified
T1 construct: cynomolgus monkey CD47 extracellular domain, cDNA cloned from a cynomolgus spleen cDNA library (BioChain); differs from human CD47 at 3 amino acids in the extracellular domain; also called cyno-CD47 Fc fusion protein; cynomolgus monkey CD47

[2] = target: T2, human CD47 on stably transfected rat YB2/0 cells (Homo sapiens, UniProt Q08722); experiment: flow cytometry on cells; hybridoma clones (supernatants) tested by FACS on parental or human CD47-transfected rat YB2/0 cells; settings: partners not purified
T2 construct: human CD47 expressed on the surface of YB2/0 cells; also called CD47-transfected YB2/0 cells; source: rat YB2/0 cells, stably transfected, on cells

[3] = target: T3, human CD47/mFc fusion protein (extracellular domain of human CD47 fused to mouse Fc) (human, UniProt Q08722); experiment: ELISA; competition: plates coated with 1 μg/ml huCD47/mFc; 10 μg/ml biotin-labeled mouse 5F9 with various concentrations of unlabeled Hu5F9-G4, room temperature 1 hr; HRP-streptavidin; settings: both partners purified
T3 construct: human CD47 extracellular domain, cloned from a full-length human CD47 cDNA (Open Biosystems); also called huCD47/mFc; hCD47/mFc; source: purified recombinant

Kd [1]: 0.01 nM
B1: Hu5F9-G4 (humanized 5F9 antibody, human IgG4 with Ser228Pro) (antibody, V domains shown)
VH: QVQLVQSGAEVKKPGASVKVSCKASGYTFTNYNMHWVRQAPGQRLEWMGTIYPGNDDTSYNQKFKDRVTITADTSASTAYMELSSLRSEDTAVYYCARGGYRAMDYWGQGTLVTVSS
VL: DIVMTQSPLSLPVTPGEPASISCRSSQSIVYSNGNTYLGWYLQKPGQSPQLLIYKVSNRFSGVPDRFSGSGSGTDFTLKISRVEAEDVGVYYCFQGSHVPYTFGQGTKLEIK

binding result [2]: binds | binding result [3]: binds
B2: mouse anti-human CD47 monoclonal antibody 5F9 (antibody, V domains shown)
VH: QVQLQQPGAELVKPGASVMMSCKASGYTFTNYNMHWVKQTPGQGLEWIGTIYPGNDDTSYNQKFKDKATLTADKSSSAAYMQLSSLTSEDSAVYYCARGGYRAMDYWGQGTSVTVSS
VL: DVLMTQTPLSLPVSLGDQASISCRSSQSIVYSNGNTYLGWYLQKPGQSPKLLIYKVSNRFSGVPDRFSGSGSGTDFTLKISRVEAEDLGVYHCFQGSHVPYTFGGGTKVEIK
notes: mouse 5F9 VH (IGHV1 family); mouse heavy chain constant region; mouse 5F9 VL (IGKV1 subgroup); mouse light chain constant region; not described beyond the IGKV1 V segment; also called mouse 5F9; parental mouse 5F9; source: hybridoma (spleen cells of immunized Balb/c mice fused with SP2/0 cells); supernatant in the FACS screen; copies: 2 + 2
